Results taken from paper PMC11362597, “Neutrophil-specific interactome of ARHGAP25 reveals novel partners and regulatory insights” (Scientific Reports, 2024).

B1: RHOG (natural protein)
chain: not shown
notes: RHOG, small GTPase of the Rac subfamily, endogenous in human neutrophilic granulocytes; In some pull-downs the lysate was loaded with GTPγS or GDPβS beforehand; source: endogenous, human neutrophilic granulocyte lysate
B2: ARF4 (natural protein, UniProt P18085 1-180, looked up)
chain: MGLTISSLFSRLFGKKQMRILMVGLDAAGKTTILYKLKLGEIVTTIPTIGFNVETVEYKNICFTVWDVGGQDRIRPLWKHYFQNTQGLIFVVDSNDRERIQEVADELQKMLLVDELRDAVLLLFANKQDLPNAMAISEMTDKLGLQSLRNRTWYVQATCATQGTGLYEGLDWLSNELSKR
notes: ARF4, small GTPase, endogenous in human neutrophilic granulocytes; In some pull-downs the lysate was loaded with GTPγS or GDPβS beforehand; source: endogenous, human neutrophilic granulocyte lysate
B3: RAB27A (natural protein, UniProt P51159 1-221, looked up)
chain: MSDGDYDYLIKFLALGDSGVGKTSVLYQYTDGKFNSKFITTVGIDFREKRVVYRASGPDGATGRGQRIHLQLWDTAGQERFRSLTTAFFRDAMGFLLLFDLTNEQSFLNVRNWISQLQMHAYCENPDIVLCGNKSDLEDQRVVKEEEAIALAEKYGIPYFETSAANGTNISQAIEMLLDLIMKRMERCVDKSWIPEGVVRSNGHASTDQLSEEKEKGACGC
notes: RAB27A, small GTPase, endogenous in human neutrophilic granulocytes; In some pull-downs the lysate was loaded with GTPγS or GDPβS beforehand; source: endogenous, human neutrophilic granulocyte lysate

Target: T1, GST-fused recombinant ARHGAP25 (human, UniProt P42331 1-645)
T1 construct: also called GST-ARHGAP25; GST-tagged recombinant ARHGAP25
T1 sequence (looked up): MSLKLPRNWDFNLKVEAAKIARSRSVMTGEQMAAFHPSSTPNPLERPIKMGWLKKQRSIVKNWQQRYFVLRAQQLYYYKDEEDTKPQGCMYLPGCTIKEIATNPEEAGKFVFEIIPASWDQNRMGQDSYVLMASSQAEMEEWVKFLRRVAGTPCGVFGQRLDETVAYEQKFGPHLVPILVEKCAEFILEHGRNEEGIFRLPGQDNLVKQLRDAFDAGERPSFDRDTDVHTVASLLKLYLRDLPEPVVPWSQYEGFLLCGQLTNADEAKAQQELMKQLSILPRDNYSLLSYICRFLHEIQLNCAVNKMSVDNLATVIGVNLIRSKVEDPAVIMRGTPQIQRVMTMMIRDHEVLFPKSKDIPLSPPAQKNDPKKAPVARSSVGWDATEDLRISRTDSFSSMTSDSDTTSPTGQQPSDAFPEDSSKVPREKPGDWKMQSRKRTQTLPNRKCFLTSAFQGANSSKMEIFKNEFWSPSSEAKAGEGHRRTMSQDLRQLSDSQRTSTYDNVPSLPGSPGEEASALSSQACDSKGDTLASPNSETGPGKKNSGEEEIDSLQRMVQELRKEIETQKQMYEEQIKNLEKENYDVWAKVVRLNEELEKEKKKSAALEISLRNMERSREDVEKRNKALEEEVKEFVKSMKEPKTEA
Assay: affinity purification with mass spectrometry; GST-ARHGAP25 on glutathione agarose beads incubated with neutrophil lysate loaded beforehand with GTPγS or GDPβS (15 mM EDTA, 15 min, RT; stopped with 60 mM MgCl2), 45 min, 4 °C; LFQ values of the two loadings compared
Conditions: one partner purified

Row | Binder | log2ΔFC of LFQ values, GTPγS-loaded against GDPβS-loaded lysate
1 | B1 | 0.589
2 | B2 | < 0.2
3 | B3 | < 0.2
